The results in this text go back to the supplement of paper PMC7877785.

± gives the uncertainty stated by the source.

The series in a line: self-splicing fitness, log relative to wild type (ln ratio); higher = more splicing; Tetrahymena group I intron in knt gene, E. coli kanamycin selection, DiMSum; sequences stand for … in CUCUCU…GGAGGGAAAAGUUAUCAGGCAUGCACCUGGUAGCUAGUCUUUAAACCAAUAGAUUGCAUCGGUUUAAAAGGCAAGACCGUCAAAUUGCGGGAAAGGGGUCAACAGCCGUUCAGUACCAAGUCUCAGGGGAAACUUUGAGAUGGCCUUGCAAAGGGUAUGGUAAUAAGCUGACGGACAUGGUCCUAACCACGCAGCCAAGUCCUAAGUCAACAGAUCUUCUGUUGAUAUGGAUGCAGUUCACAGACUAAAUGUCGGUCGGGGAAGAUGUAUUCUUCUCAUAAGAUAUAGUCGGACCUCUCCUUAAUGGGAGCUAGCGGAUGAAGUGAUGCAACACUGGAGCCGCUGGGAACUAAUUUGUAUGCGAAAGUAUAUUGAUUAGUUUUGGAGUACUCGUGGUCG
Summed up:
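Six replicate transformations of E. coli BL21(DE3) with a pET-22b(+) library were grown overnight at 37°C or 30°C. The library randomised all eight P1ex-region intron nucleotides, the intron lying in the knt kanamycin-resistance gene, and plates were LB agar with or without 25 μg/mL kanamycin plus 100 μg/mL carbenicillin, 50 μM IPTG and 0.2% rhamnose. Pooled colonies were amplicon-sequenced on an Illumina HiSeq 2500, and fitness is the DiMSum error-weighted combination of wild-type-normalised replicate fold changes, kanamycin versus none.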

For the sequence GCGGAGCAAUAUUACGUAUG, the “self-splicing fitness (ln)” value runs as follows: (30 °C) -3.28 ± 0.31; (37 °C) -2.58 ± 0.41.
For GCGGAGCAAUAUUACGUCAA, the “self-splicing fitness (ln)” value (30 °C) is -2.42 ± 0.37.
GCGGAGCAAUAUUACGUCAG: the “self-splicing fitness (ln)” value (30 °C) was -3.19 ± 0.31 and the “self-splicing fitness (ln)” value (37 °C) was -2.38 ± 0.35.
With GCGGAGCAAUAUUACGUCCU, the “self-splicing fitness (ln)” value is, setting by setting: (30 °C) -1.31 ± 0.25; (37 °C) -0.651 ± 0.41.
The corresponding values for GCGGAGCAAUAUUACGUCUU are -2.3 ± 0.22 and -0.899 ± 0.22.
Consider GCGGAGCAAUAUUACGUUCG, for which, under “37 °C”, the “self-splicing fitness (ln)” value was -0.666 ± 0.37.
Same read-out and setting: for GCGGAGCAAUAUUACGUUGG the value was -3.01 ± 0.4.
Take GCGUAGCAAUAUUACGACAC: the “self-splicing fitness (ln)” value is -0.714 ± 0.092 (30 °C) and -0.0138 ± 0.097 (37 °C).
As for GCGUAGCAAUAUUACGACGA, the “self-splicing fitness (ln)” value (30 °C) was -0.712 ± 0.15 and the “self-splicing fitness (ln)” value (37 °C) was -0.0139 ± 0.19.
The corresponding values for GCGUAGCAAUAUUACGACGG are -3.73 ± 0.48 and -2.79 ± 0.43.
As to GCGUAGCAAUAUUACGAGCA, the “self-splicing fitness (ln)” value was -1.28 ± 0.082 (30 °C) and -0.574 ± 0.094 (37 °C).
Regarding GCGUAGCAAUAUUACGAGCG, the “self-splicing fitness (ln)” value (30 °C) is -0.887 ± 0.15 and the “self-splicing fitness (ln)” value (37 °C) is -1.62 ± 0.17.
In the case of GCGUAGCAAUAUUACGAGGC, under “37 °C”, the “self-splicing fitness (ln)” value is -1.53 ± 0.39.
For GCGUAGCAAUAUUACGAGUC, the “self-splicing fitness (ln)” value runs as follows: (30 °C) -2.81 ± 0.22; (37 °C) -2.17 ± 0.23.
On to GCGUAGCAAUAUUACGAUCG, for which the “self-splicing fitness (ln)” value runs as follows: (30 °C) -1.34 ± 0.12; (37 °C) -0.204 ± 0.13.
For the sequence GCGUAGCAAUAUUACGAUGC, the “self-splicing fitness (ln)” value was -3.71 ± 0.32 (30 °C) and -1.39 ± 0.27 (37 °C).
As for GCGUAGCAAUAUUACGCCGU, the “self-splicing fitness (ln)” value (30 °C) was -2.86 ± 0.26 and the “self-splicing fitness (ln)” value (37 °C) was -3.17 ± 0.26.
GCGUAGCAAUAUUACGCGGG: the “self-splicing fitness (ln)” value is, setting by setting: (30 °C) -3.78 ± 0.24; (37 °C) -2.75 ± 0.3.
The corresponding values for GCGUAGCAAUAUUACGCGUG are -4.06 ± 0.28 and -2.71 ± 0.15.
With GCGUAGCAAUAUUACGGACG, the “self-splicing fitness (ln)” value (30 °C) was -3.14 ± 0.21 and the “self-splicing fitness (ln)” value (37 °C) is -2.1 ± 0.22.
The corresponding values for GCGUAGCAAUAUUACGGCAG are -3.83 ± 0.28 and -2.13 ± 0.39.
Regarding GCGUAGCAAUAUUACGGCGG, the “self-splicing fitness (ln)” value runs as follows: (30 °C) -2.79 ± 0.19; (37 °C) -1.36 ± 0.23.
The corresponding values for GCGUAGCAAUAUUACGGGGA are -2.23 ± 0.32 and -2.89 ± 0.35.
For the sequence GCGUAGCAAUAUUACGGUGA, the “self-splicing fitness (ln)” value runs as follows: (30 °C) -1.73 ± 0.12; (37 °C) -0.187 ± 0.12.
For GCGUAGCAAUAUUACGGUUU the same measures were -1.03 ± 0.1 and -0.436 ± 0.13.
The corresponding values for GCGUAGCAAUAUUACGUAUA are -2.15 ± 0.26 and -1.52 ± 0.21.
For GCGUAGCAAUAUUACGUUAU, the “self-splicing fitness (ln)” value runs as follows: (30 °C) -3.72 ± 0.35; (37 °C) -1.89 ± 0.18.
With GCGUAGCAAUAUUACGUUGG, the “self-splicing fitness (ln)” value reads like this: (30 °C) -2.62 ± 0.24; (37 °C) -2.96 ± 0.32.
For GCUAAGCAAUAUUACGACGG the same measures were -1.8 ± 0.11 and -1.49 ± 0.14.
For GCUAAGCAAUAUUACGACUC, the “self-splicing fitness (ln)” value is 0.21 ± 0.098 (30 °C) and 0.379 ± 0.14 (37 °C).
For GCUAAGCAAUAUUACGAGCA the same measures were -1.72 ± 0.14 and -1.03 ± 0.13.
The corresponding values for GCUAAGCAAUAUUACGAUGG are -0.808 ± 0.072 and -0.4 ± 0.098.
On to GCUAAGCAAUAUUACGCAAG, for which, for the setting “37 °C”, the “self-splicing fitness (ln)” value is -1.46 ± 0.28.
Take GCUAAGCAAUAUUACGCAGC: the “self-splicing fitness (ln)” value reads like this: (30 °C) -3.14 ± 0.4; (37 °C) -2.62 ± 0.28.
Regarding GCUAAGCAAUAUUACGCCGC, the “self-splicing fitness (ln)” value (30 °C) is -2.72 ± 0.48.
On to GCUAAGCAAUAUUACGCCUC, for which the “self-splicing fitness (ln)” value is -1.89 ± 0.16 (30 °C) and -0.286 ± 0.22 (37 °C).
With GCUAAGCAAUAUUACGCGGU, the “self-splicing fitness (ln)” value is -2.97 ± 0.27 (30 °C) and -2.72 ± 0.25 (37 °C).
The corresponding values for GCUAAGCAAUAUUACGCGUC are -0.276 ± 0.14 and -2.47 ± 0.19.
For GCUAAGCAAUAUUACGGCCC, the “self-splicing fitness (ln)” value (30 °C) was -1.78 ± 0.18 and the “self-splicing fitness (ln)” value (37 °C) was -0.371 ± 0.14.
Take GCUAAGCAAUAUUACGGCCG: the “self-splicing fitness (ln)” value is -3.06 ± 0.25 (30 °C) and -2.9 ± 0.47 (37 °C).
For GCUAAGCAAUAUUACGGGAA the same measures were -1.56 ± 0.12 and -1.16 ± 0.12.
Turning to GCUAAGCAAUAUUACGGGAU, the “self-splicing fitness (ln)” value runs as follows: (30 °C) -2.86 ± 0.1; (37 °C) -0.821 ± 0.081.
GCUAAGCAAUAUUACGGGGA: the “self-splicing fitness (ln)” value (30 °C) is -1.74 ± 0.17 and the “self-splicing fitness (ln)” value (37 °C) was -1.55 ± 0.21.
For the sequence GCUAAGCAAUAUUACGGUUC, the “self-splicing fitness (ln)” value was -1.72 ± 0.097 (30 °C) and -0.788 ± 0.11 (37 °C).
The corresponding values for GCUAAGCAAUAUUACGGUUG are -2.99 ± 0.092 and -2.42 ± 0.098.
Take GCUAAGCAAUAUUACGUAAA: the “self-splicing fitness (ln)” value (30 °C) was -0.877 ± 0.068 and the “self-splicing fitness (ln)” value (37 °C) is -0.32 ± 0.091.
For the sequence GCUAAGCAAUAUUACGUACA, the “self-splicing fitness (ln)” value was -1.38 ± 0.1 (30 °C) and -0.974 ± 0.13 (37 °C).
As to GCUAAGCAAUAUUACGUACU, the “self-splicing fitness (ln)” value runs as follows: (30 °C) -0.353 ± 0.051; (37 °C) -0.348 ± 0.068.
On to GCUAAGCAAUAUUACGUAGU, for which the “self-splicing fitness (ln)” value reads like this: (30 °C) -4.17 ± 0.31; (37 °C) -2.32 ± 0.19.
For GCUAAGCAAUAUUACGUAUU the same measures were -1.16 ± 0.079 and -1.02 ± 0.11.
Regarding GCUAAGCAAUAUUACGUUUC, the “self-splicing fitness (ln)” value was -3 ± 0.16 (30 °C) and -0.945 ± 0.12 (37 °C).
The corresponding values for GCUAAGCAAUAUUACGUUUU are -2 ± 0.093 and -0.945 ± 0.1.
The corresponding values for GCUCAGCAAUAUUACGCAGA are -3.72 ± 0.2 and -2.88 ± 0.2.
The corresponding values for GCUCAGCAAUAUUACGCAUG are -1.66 ± 0.1 and -1.49 ± 0.1.
GCUCAGCAAUAUUACGCCAU: the “self-splicing fitness (ln)” value reads like this: (30 °C) -3.28 ± 0.48; (37 °C) -2.26 ± 0.36.
As for GCUCAGCAAUAUUACGCCCU, the “self-splicing fitness (ln)” value is, setting by setting: (30 °C) -1.18 ± 0.19; (37 °C) 0.764 ± 0.18.
For GCUCAGCAAUAUUACGCCGG, the “self-splicing fitness (ln)” value was -2.03 ± 0.15 (30 °C) and -0.855 ± 0.17 (37 °C).
Take GCUCAGCAAUAUUACGCCUC: the “self-splicing fitness (ln)” value is -1.49 ± 0.2 (30 °C) and 0.48 ± 0.22 (37 °C).
With GCUCAGCAAUAUUACGCCUG, the “self-splicing fitness (ln)” value was -2.66 ± 0.26 (30 °C) and -2.42 ± 0.32 (37 °C).
For GCUCAGCAAUAUUACGCGAA the same measures were -0.998 ± 0.11 and -0.98 ± 0.12.
Take GCUCAGCAAUAUUACGCGCG: the “self-splicing fitness (ln)” value reads like this: (30 °C) -1.03 ± 0.071; (37 °C) -0.194 ± 0.091.
As to GCUCAGCAAUAUUACGGAUC, the “self-splicing fitness (ln)” value reads like this: (30 °C) -0.0202 ± 0.09; (37 °C) -0.0789 ± 0.11.
For GCUCAGCAAUAUUACGGAUU the same measures were -0.53 ± 0.051 and 0.362 ± 0.075.
For GCUCAGCAAUAUUACGGCCC the same measures were -1.13 ± 0.078 and -0.029 ± 0.1.
On to GCUCAGCAAUAUUACGGCUU, for which the “self-splicing fitness (ln)” value reads like this: (30 °C) -0.675 ± 0.066; (37 °C) -0.385 ± 0.071.
For GCUCAGCAAUAUUACGGGAU, the “self-splicing fitness (ln)” value runs as follows: (30 °C) -1.16 ± 0.097; (37 °C) -0.195 ± 0.11.
For GCUCAGCAAUAUUACGGUCC the same measures were -0.681 ± 0.065 and 0.158 ± 0.087.
As for GCUCAGCAAUAUUACGUAAG, the “self-splicing fitness (ln)” value reads like this: (30 °C) -0.791 ± 0.043; (37 °C) -0.374 ± 0.067.
For GCUCAGCAAUAUUACGUAGU, the “self-splicing fitness (ln)” value by setting is: (30 °C) -0.46 ± 0.059; (37 °C) -0.522 ± 0.075.
In the case of GCUCAGCAAUAUUACGUGCC, the “self-splicing fitness (ln)” value (37 °C) was -2.56 ± 0.23.
On to GCUGAGCAAUAUUACGAAAG, for which the “self-splicing fitness (ln)” value is -1.75 ± 0.2 (30 °C) and -1.46 ± 0.23 (37 °C).
On to GCUGAGCAAUAUUACGACUA, for which the “self-splicing fitness (ln)” value was -1.55 ± 0.22 (30 °C) and -1.72 ± 0.21 (37 °C).
The corresponding values for GCUGAGCAAUAUUACGAGAU are -3.06 ± 0.34 and -2.09 ± 0.31.
Consider GCUGAGCAAUAUUACGAGCG, for which the “self-splicing fitness (ln)” value is -0.822 ± 0.23 (30 °C) and -0.795 ± 0.21 (37 °C).
The corresponding values for GCUGAGCAAUAUUACGAGUA are -2.25 ± 0.31 and -1.72 ± 0.35.
For GCUGAGCAAUAUUACGAUAC, the “self-splicing fitness (ln)” value by setting is: (30 °C) -1.15 ± 0.35; (37 °C) 0.491 ± 0.22.
With GCUGAGCAAUAUUACGAUCC, the “self-splicing fitness (ln)” value is, setting by setting: (30 °C) -1.34 ± 0.15; (37 °C) 0.743 ± 0.24.
